Test results as given in patent US20120003226A1.

Target: IL-1 receptor (human) (UniProt P14778)
Test: cell-based or functional assay

UniProt P14778, sequence (P14778 18-569): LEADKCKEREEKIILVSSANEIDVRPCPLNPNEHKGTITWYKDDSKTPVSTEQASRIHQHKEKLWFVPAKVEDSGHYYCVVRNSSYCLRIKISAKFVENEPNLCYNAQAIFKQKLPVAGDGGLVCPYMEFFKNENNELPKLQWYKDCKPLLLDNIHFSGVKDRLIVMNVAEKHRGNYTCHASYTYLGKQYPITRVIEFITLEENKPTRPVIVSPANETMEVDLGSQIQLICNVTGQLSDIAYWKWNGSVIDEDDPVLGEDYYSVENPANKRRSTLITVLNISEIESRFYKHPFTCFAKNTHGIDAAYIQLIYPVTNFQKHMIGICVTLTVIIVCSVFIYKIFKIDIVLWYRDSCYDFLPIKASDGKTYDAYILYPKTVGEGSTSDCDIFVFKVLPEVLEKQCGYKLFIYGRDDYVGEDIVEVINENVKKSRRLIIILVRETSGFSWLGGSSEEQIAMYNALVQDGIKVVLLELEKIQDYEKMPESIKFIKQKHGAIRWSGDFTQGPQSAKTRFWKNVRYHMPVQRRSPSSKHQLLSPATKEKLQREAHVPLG

Q: For “Kineret® (anakinra) (from UniProt P18510 26-177) (ligand)”, which IC50, inhibition of IL-1β induced production of IL-8 in human whole blood (100 pM rhIL-1β) is on record?
A: 53.4 pM
